Entries after “also recorded” stand apart in the source; their conditions may differ.
Legend:
ticks and mosquitoes = settings: against ticks and mosquitoes; cited from earlier work
[1] = tested on: Saccharomyces cerevisiae strain ALX11-30; experiment: Shake flask assay of cells expressing valencene synthase; format: cell-based; settings: FIG. 7, cells expressing the synthase
Procedure: Seed cultures were started in 250 mL flasks by inoculating 15 mL of SD or SDE medium (for ALX11-30 and ALX7-95 strains, respectively) with freshly growing colonies of the 7 strains shown in Table 5 above. The cultures were grown for 24 hours, and 2.5 mL of each culture were used to inoculate 50 mL of fermentation medium (2% ammonium sulfate, 2% potassium phosphate, 0.1% NaCl, 0.6% MgSO4.7H2O, 0.4% yeast extract, 1 mL mineral solution [FeSO4.7H2O 0.028%, ZnSO4.7H2O 0.029%, CuSO4.5H2O 0.008%, Na2MoO4.2H2O 0.024%, CoCl2.6H2O 0.024%, MnSO4.H2O 0.017%, HCl 1 mL], 0.5 mL 50% glucose, 1.5 mL vitamin solution [biotin 0.001%, Ca-pantothenate 0.012%, inositol 0.06%, pyridoxine-HCl 0.012%, thiamine-HCl 0.012%], and 0.5 mL 10% CaCl2) in a 250 mL baffled flask. The cultures were grown at 28° C. After 16 hours of incubation, the cultures were fed 3.6 mL of 50% glucose and 0.667 mL of 12.5% yeast extract. […] An aliquot of the organic phase was analyzed by gas chromatography and the amount of valencene produced was quantified by calculating the area under the peak representing valencene. […]
Table 6a below provides product distribution profiles including the amount of valencene produced from the shake flask assay, as determined by gas chromatography, of CVS 277 compared to two strains that produce EGVS in the ALX11-30 strain (as described in Example 3).

[2] = Steady state kinetic analysis of His-tag purified valencene synthases; format: biochemical
Procedure: In this example, the activity of E. glaciale valencene synthase (EgVS; SEQ ID NO:1) and of the citrus valencene synthase designated V277 (SEQ ID NO:31) were evaluated by steady state kinetic analysis. To compare the activities of these enzymes in vitro, the valencene synthases were Histidine-tagged at the C-terminus, expressed in E. coli, purified by nickel chelate chromatography, and evaluated for activity by steady state kinetic analysis. […] T=30C. Detection: GC/MS-SIM.

Row | Molecule | Repellent and insecticide effect (ticks and mosquitoes) | Valencene production in yeast compared to the CVS synthase ([1]; listed as EG synthase) | Valencene production in yeast compared to the CVS synthase ([1]; listed as EVS) | Turnover compared with valencene synthase V277 [2] | Total and specific activity compared with valencene synthase V277 ([2]; side-by-side comparison, FIG. 6)
1 | C=C(C)[C@@H]1CCC2=CC(=O)C[C@@H](C)[C@]2(C)C1 [nootkatone, 4,4a,5,6,7,8-hexahydro-6-isopropenyl-4,4-a-dimethyl-2(3H)-naphthalenone] | effective repellent and insecticide |  |  |  | 
2 | EgVS: Eryngium glaciale valencene synthase, amino acid sequence SEQ ID NO:1; His-tagged at the C-terminus for kinetics (protein, C-terminal His tag; Eryngium glaciale; valencene synthase protein, His-tagged at the C-terminus for kinetics) MSLNVLSTSGSAPTTKSSEITRRSANYHPSLWGDKFLEYSSPDHLKNDSFTEKKHEQLKEEVKKMLVETVQKPQQQLNLINEIQRLGLSYLFEPEIEAALQEISVTYDEFCCSTDADDLHNVALSFRILREHGHNVSSDVFQKFMDSNGKLKDYLVNDARGLLSLYEATHFRVHNDDKLEELLSVTTSRLEHLKSHVKYPLEDEISRALKHPLHKELNRLGARYYISIYEKFDSHNKLLLEFAKLDFNRLQKMYQHELAHLTRWWKDLDFTNKLPFARDRIVEGYFWILGMYFEPERKDVREFLNRVFALITVVDDTYDVYGTFKELLLFTDAIERWGTSDLDQLPGYMRIIYQALMDVYNQMEEKLSMKADCPTYRLEFAIETVKAMFRSYLEEARWSKEHYIPSMEEYMTVALVSVGYKTILTNSFVGMGDIATREVFEWVFNSPLIIRASDLIARLGDDIGGHEEEQKKGDAATAIECYIKENHVTKHEAYDEFQKQIDNAWKDLNKEALRPFPVPMTFITRVVHFTRAIHVIYADFSDGYTRSDKAIRGYITSLLVDPIPL |  | more than twice the amount of valencene | significantly greater | turned over significantly more times | dramatically higher total and specific activity; also recorded: exhibits greater activity

— patent US10000749B2, “Valencene synthase polypeptides, encoding nucleic acid molecules and uses thereof” (Evolva, Inc., priority 2013, dated 2018)
